# Test results published in patent publication US20130210034A1, “COMPLEX PHOSPHOPROTEIN ACTIVATION PROFILES” (BECKMAN COULTER, INC., priority 2005, published 2013).
# “And” between values parts separate entries of the source, which are not always exact repeats. Identical values can stand only once.
# B1: Granulocyte Colony-Stimulating Factor (protein, UniProt P09919 31-207, looked up)
# Granulocyte …: TPLGPASSLPQSFLLKCLEQVRKIQGDGAALQEKLVSECATYKLCHPEELVLLGHSLGIPWAPLSSCPSQALQLAGCLSQLHSGLFLYQGLLQALEGISPELGPTLDTLQLDVADFATTIWQQMEELGMAPALQPTQGAMPAFASAFQRRAGGVLVASHLQSFLEVSYRVLRHLAQP
# notes: colony-stimulating cytokine
# Key:
# Assay type in all cases: cell-based, human
# pSTAT3 [1] = test: Cytokine-stimulated phosphorylation in AML cell populations (BM or PB of AML patients); settings: patient AML3 (Example 3)
# Procedure: (§1) To assess the signal transduction response after growth factor simulation, a series comprising two sets of tubes including about 3×10^6 cells/100 μL were incubated at 37° C. for 30 minutes. After this pre-incubation period, tubes with then processes with either a stimulant or inhibitor. […] To examine the effects of protein phosphorylation inhibition, tubes were incubated with an inhibitor cocktail comprising 100 μM/100 μL UO126, 1 μM/100 μL LY294002, and 1 μM/100 μL rapamycin. One unstimulated tube receiving no stimulant or inhibitor was processed to assess basal levels of phospho-protein expression. After stimulation the cells were immediately fixed in 10% formaldehyde solution at 37° C. Pre-labeling with CD13, CD16 and CD64 antibodies was carried out 20 minutes prior to formaldehyde fixation. After fixation, one set of tubes was permeabilized without methanol for pAKT, pERK and pS6 staining and the other for 80% methanol permeabilized for pSTAT3 and pSTAT5 staining. After permeablization, the cells were washed in PBS with 2% BSA and blocked by re-suspended in 75 μL of PBS comprising 25% heat inactivated normal mouse serum, 25% normal rabbit serum. To stain cells with fluorescent conjugated monoclonal antibodies, samples were incubated on ice for 45 minutes in 100 μL of an antibody staining solution including either: 1) CD15-Pacific Orange, CD34-Phycoerythrin-Texas Red, CD117-Phycoerythrin-Cyanin 5.5, CD45-Allophycocyanin-Alexa Fluor 750 (or CD45-Pacific Orange, in which case CD15-Pacific Orange was omitted), pS6-Pacific Blue, pERK-Alexa Fluor 488 and pAKT-Alexa Fluor 647 or 2) CD15-Pacific Orange, CD34-Phycoerythrin-Texas Red, CD117-Phycoerythrin-Cyanin 5.5, CD45-Allophycocyanin-Alexa Fluor 750 or CD45-Pacific Blue, pSTAT3-Alexa Fluor 488 and pSTAT5-Phycoerythrin. The stained cells were washed twice with ice cold PBS containing 2% BSA and centrifuged at 800 g for 6 minutes at 4° C. The supernatant was discarded and cells re-suspended in 250 μL of chilled wash buffer for data acquisition. Stained cells were examined using either GALIOS flow cytometer (Beckman Coulter) or CYAN ADP (Beckman Coulter) equipped with 488 nm, 405 nm and 635 nm lasers to detect the degree of fluorescence. Data were analyzed using FCS Express (De Novo Software, CA) analysis software.
# (§2) Specific phosphoprotein expression of pERK, pS6, pAKT, pSTAT5, and pSTAT3 was examined in seven discrete phenotypically defined populations based on 7-color immunophenotyping (FIG. 1). The percent of responding (phosphorprotein positive) cells for each of these populations was determined from individual single parameter histograms based on a fixed integration region set on the inhibitor treated control at about 3% positives.
# (§3) Using normal BM signaling profiles of Example 1 as comparison, analysis of 14 AML samples was carried out to identify differences in signaling responses. White blood cells from BM or peripheral blood (PB) samples were obtained from 14 diagnosed AML patients undergoing routine clinical flow cytometry analysis using IRB approved protocols. The AML patients included newly diagnosed AML, AMLs arising in a background of MDS, therapy related AMLs and previously diagnosed AML post therapy. The median age of the patients at diagnosis was 51 years (range: 29-75 years) and represented 5 female and 9 male patients. The median white blood cell was 6.4 million/mL (range: 0.9-106 M/mL) and the BM morphologic blast count was an average of 46% (range: 0%-90%).
# (§4) Experiments performed to assess the signal transduction response after growth factor simulation were performed as described for Example 1.
# pSTAT5 [2] = test: as above; settings: patient AML3 (Example 3)
# Procedure: as §1, §2, §3, §4
# lymphocytes = test: Phosphoprotein modulation in lymphocytes of normal BM (Example 1, internal negative control); settings: lymphocytes of normal BM (Examples 1-2)
# Procedure: To assess the signal transduction response after growth factor simulation, a series comprising two sets of tubes including about 3×10^6 cells/100 μL were incubated at 37° C. for 30 minutes. After this pre-incubation period, tubes with then processes with either a stimulant or inhibitor. […] To examine the effects of protein phosphorylation inhibition, tubes were incubated with an inhibitor cocktail comprising 100 μM/100 μL UO126, 1 μM/100 μL LY294002, and 1 μM/100 μL rapamycin. One unstimulated tube receiving no stimulant or inhibitor was processed to assess basal levels of phospho-protein expression. After stimulation the cells were immediately fixed in 10% formaldehyde solution at 37° C. […] Stained cells were examined using either GALIOS flow cytometer (Beckman Coulter) or CYAN ADP (Beckman Coulter) equipped with 488 nm, 405 nm and 635 nm lasers to detect the degree of fluorescence. Data were analyzed using FCS Express (De Novo Software, CA) analysis software.
# The tables include the mean and the standard deviation of the percent responding cell population as well as the signal/noise (S/N) ratio for the 5 different phosphoproteins in response to the above-mentioned stimuli in each of these populations. […] Lymphocytes thus served as a de facto internal negative control and their median fluorescence intensity (MFI) was used for normalization of the phosphoprotein measurements.
# pSTAT3 [3] = test: Cytokine-stimulated phosphorylation in immunophenotypically defined cell populations from healthy donor BM (flow cytometry); settings: for pSTAT3 Percent (%) Responding Cells, Mean / pSTAT3 S/N ratio: healthy donor BM, mean ± SD
# Procedure: (§5) Bone marrow (BM) samples were collected in 7.5 mL Iscove's modified Dulbecco's medium (IMDM) supplemented with 100U penicillin, 0.01 mg/mL streptomycin, and 70 μg/mL heparin sodium salt from 10 patients undergoing hip replacement surgery, who were otherwise healthy. These patients were from a pool of surgery patients, age 49 to 77, and represented […] patients. […] These BM samples were rinsed twice with IMDM to release cells, filtered using a 100 μm Nylon cell strainer to remove marrow particles, and centrifuged for at RT fro 7 minutes at 200 g. The cell pellet was washed twice with sterile IMDM to remove traces of fat and re-suspended in IMDM to a concentration of 3×10^7 cells/mL.
# as §1, §2
# pERK = test: as above; settings: healthy donor BM, mean ± SD
# Procedure: as §5, §1, §2
# pAKT = test: as above; settings: healthy donor BM, mean ± SD
# Procedure: as §5, §1, §2
# pSTAT5 [4] = test: as above; settings: for pSTAT5 Percent (%) Responding Cells, Mean / pSTAT5 S/N ratio: healthy donor BM, mean ± SD
# Procedure: as §5, §1, §2
# pS6 = test: as above; settings: healthy donor BM, mean ± SD
# Procedure: as §5, §1, §2
molecule,measurement,setting,value
B1,"pSTAT3, AML Sample",pSTAT3 [1],7.0
same,"pSTAT5, AML Sample",pSTAT5 [2],8.3
same,"Modulation of phosphoprotein epitopes (pERK, pS6, pAKT, pSTAT3 or pSTAT5) in lymphocytes",lymphocytes,no response
same,"pSTAT3 Percent (%) Responding Cells, Mean",pSTAT3 [3]; CD34^+ (CD34^+/CD117^+ cells),77.8 ± 19.1%
same,pSTAT3 S/N ratio,pSTAT3 [3]; CD34^+ (CD34^+/CD117^+ cells),9.8 ± 3.0
same,"pSTAT3 Percent (%) Responding Cells, Mean",pSTAT3 [3]; CD117^+ (CD34^−/CD117^+ cells),46.2 ± 26.8%
same,pSTAT3 S/N ratio,pSTAT3 [3]; CD117^+ (CD34^−/CD117^+ cells),9.9 ± 4.6
same,"pSTAT3 Percent (%) Responding Cells, Mean","pSTAT3 [3]; G1, immature myeloid cells",91.2 ± 20.4%
same,pSTAT3 S/N ratio,"pSTAT3 [3]; G1, immature myeloid cells",13.3 ± 4.8
same,"pSTAT3 Percent (%) Responding Cells, Mean","pSTAT3 [3]; G2, intermediate myeloid cells",91.3 ± 19.3%
same,pSTAT3 S/N ratio,"pSTAT3 [3]; G2, intermediate myeloid cells",13.3 ± 5.1
same,"pSTAT3 Percent (%) Responding Cells, Mean","pSTAT3 [3]; G3, mature myeloid cells",89.2 ± 24.9%
same,pSTAT3 S/N ratio,"pSTAT3 [3]; G3, mature myeloid cells",14.0 ± 5.5
same,"pSTAT3 Percent (%) Responding Cells, Mean","pSTAT3 [3]; Mono, monocytes",27.8 ± 31.8%
same,pSTAT3 S/N ratio,"pSTAT3 [3]; Mono, monocytes",6.1 ± 2.7
same,"pSTAT3, Normal Sample","pSTAT3 [3]; Table 7 comparison value, matches percent responding CD34^+ cells of Table 5",77.8
same,"pERK Percent (%) Responding Cells, Mean",pERK; CD34^+ (CD34^+/CD117^+ cells),47.1% and 47.1 ± 12.6%
same,pERK S/N ratio,pERK; CD34^+ (CD34^+/CD117^+ cells),10.2 and 10.2 ± 2.7
same,"pERK Percent (%) Responding Cells, Mean",pERK; CD117^+ (CD34^−/CD117^+ cells),39.2 ± 13.9%
same,pERK S/N ratio,pERK; CD117^+ (CD34^−/CD117^+ cells),6.8 ± 2.5
same,"pERK Percent (%) Responding Cells, Mean","pERK; G1, immature myeloid cells",22.9% and 22.9 ± 24.1%
same,pERK S/N ratio,"pERK; G1, immature myeloid cells",4.2 ± 1.6
same,"pERK Percent (%) Responding Cells, Mean","pERK; G2, intermediate myeloid cells",55.2 ± 33.1%
same,pERK S/N ratio,"pERK; G2, intermediate myeloid cells",5.8 ± 2.4
same,"pERK Percent (%) Responding Cells, Mean","pERK; G3, mature myeloid cells",46.0% and 46.0 ± 30.3%
same,pERK S/N ratio,"pERK; G3, mature myeloid cells",6.2 ± 2.2
same,"pERK Percent (%) Responding Cells, Mean","pERK; Mono, monocytes",12.7 ± 8.8%
same,pERK S/N ratio,"pERK; Mono, monocytes",3.2 ± 1.6
same,"pAKT Percent (%) Responding Cells, Mean",pAKT; CD34^+ (CD34^+/CD117^+ cells),22.5% and 22.5 ± 18.4%
same,pAKT S/N ratio,pAKT; CD34^+ (CD34^+/CD117^+ cells),6.4 ± 5.9
same,"pAKT Percent (%) Responding Cells, Mean",pAKT; CD117^+ (CD34^−/CD117^+ cells),16.6 ± 19.8%
same,pAKT S/N ratio,pAKT; CD117^+ (CD34^−/CD117^+ cells),2.7 ± 1.8
same,"pAKT Percent (%) Responding Cells, Mean","pAKT; G1, immature myeloid cells",5.3 ± 10.9%
same,pAKT S/N ratio,"pAKT; G1, immature myeloid cells",2.5 ± 1.5
same,"pAKT Percent (%) Responding Cells, Mean","pAKT; G2, intermediate myeloid cells",4.1 ± 3.3%
same,pAKT S/N ratio,"pAKT; G2, intermediate myeloid cells",2.5 ± 1.2
same,"pAKT Percent (%) Responding Cells, Mean","pAKT; G3, mature myeloid cells",4.4 ± 3.1%
same,pAKT S/N ratio,"pAKT; G3, mature myeloid cells",2.8 ± 1.4
same,"pAKT Percent (%) Responding Cells, Mean","pAKT; Mono, monocytes",4.1 ± 4.9%
same,pAKT S/N ratio,"pAKT; Mono, monocytes",2.6 ± 1.2
same,"pSTAT5 Percent (%) Responding Cells, Mean",pSTAT5 [4]; CD34^+ (CD34^+/CD117^+ cells),82.6 ± 14.0%
same,pSTAT5 S/N ratio,pSTAT5 [4]; CD34^+ (CD34^+/CD117^+ cells),25.2 and 25.2 ± 13.3
same,"pSTAT5 Percent (%) Responding Cells, Mean",pSTAT5 [4]; CD117^+ (CD34^−/CD117^+ cells),49.8 ± 25.2%
same,pSTAT5 S/N ratio,pSTAT5 [4]; CD117^+ (CD34^−/CD117^+ cells),17.0 ± 11.9
same,"pSTAT5 Percent (%) Responding Cells, Mean","pSTAT5 [4]; G1, immature myeloid cells",70.9 ± 26.5%
same,pSTAT5 S/N ratio,"pSTAT5 [4]; G1, immature myeloid cells",8.7 and 8.7 ± 1.9
same,"pSTAT5 Percent (%) Responding Cells, Mean","pSTAT5 [4]; G2, intermediate myeloid cells",71.6 ± 22.0%
same,pSTAT5 S/N ratio,"pSTAT5 [4]; G2, intermediate myeloid cells",9.7 ± 2.3
same,"pSTAT5 Percent (%) Responding Cells, Mean","pSTAT5 [4]; G3, mature myeloid cells",71.4 ± 17.7%
same,pSTAT5 S/N ratio,"pSTAT5 [4]; G3, mature myeloid cells",11.7 and 11.7 ± 3.0
same,"pSTAT5 Percent (%) Responding Cells, Mean","pSTAT5 [4]; Mono, monocytes",29.5 ± 19.9%
same,pSTAT5 S/N ratio,"pSTAT5 [4]; Mono, monocytes",5.9 ± 2.0
same,"pSTAT5, Normal Sample","pSTAT5 [4]; Table 7 comparison value, matches percent responding CD34^+ cells of Tables 1-5",82.6
same,"pS6 Percent (%) Responding Cells, Mean",pS6; CD34^+ (CD34^+/CD117^+ cells),52% and 52.0 ± 34.2%
same,pS6 S/N ratio,pS6; CD34^+ (CD34^+/CD117^+ cells),30.7 ± 25.2
same,"pS6 Percent (%) Responding Cells, Mean",pS6; CD117^+ (CD34^−/CD117^+ cells),41.5 ± 26.5%
same,pS6 S/N ratio,pS6; CD117^+ (CD34^−/CD117^+ cells),12.9 ± 10.1
same,"pS6 Percent (%) Responding Cells, Mean","pS6; G1, immature myeloid cells",2.7 ± 1.9%
same,pS6 S/N ratio,"pS6; G1, immature myeloid cells",4.0 ± 2.3
same,"pS6 Percent (%) Responding Cells, Mean","pS6; G2, intermediate myeloid cells",2.9 ± 2.3%
same,pS6 S/N ratio,"pS6; G2, intermediate myeloid cells",3.7 ± 2.1
same,"pS6 Percent (%) Responding Cells, Mean","pS6; G3, mature myeloid cells",4.2 ± 3.0%
same,pS6 S/N ratio,"pS6; G3, mature myeloid cells",4.0 ± 2.4
same,"pS6 Percent (%) Responding Cells, Mean","pS6; Mono, monocytes",42.2% and 42.2 ± 30.2%
same,pS6 S/N ratio,"pS6; Mono, monocytes",17.2 ± 16.8
